Results reported in patent EP1506972A1 (Genentech Inc., dated 2005).
Each block holds one molecule with its values, some of them ahead of it.

Experiments:
[1] = target: recombinant human IGFBP-3 (human) (UniProt P17936); assay: BIAcore
[2] = target: T1, human IGFBP-1 (human) (UniProt P08833); assay: BIAcore
T1 sequence (looked up): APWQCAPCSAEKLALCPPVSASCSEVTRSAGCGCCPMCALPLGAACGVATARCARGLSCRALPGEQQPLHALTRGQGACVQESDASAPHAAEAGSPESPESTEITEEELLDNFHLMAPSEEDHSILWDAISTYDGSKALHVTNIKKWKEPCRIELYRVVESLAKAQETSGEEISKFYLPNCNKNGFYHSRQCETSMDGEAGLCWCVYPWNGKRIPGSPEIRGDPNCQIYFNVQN

[3] = target: IGF-I I43A (G1S-A70V background) displayed on phage (human; bacteriophage M13); assay: competitive phage ELISA, soluble IGFBP-3 vs coated IGFBP-3
[4] = target: IGF-I G42A (G1S-A70V background) displayed on phage (human; bacteriophage M13); assay: as above
[5] = target: IGF-I R21A (G1S-A70V background) displayed on phage (human; bacteriophage M13); assay: as above
[6] = target: IGF-I Q40A (G1S-A70V background) displayed on phage (human; bacteriophage M13); assay: as above
[7] = target: IGF-I S35A (G1S-A70V background) displayed on phage (human; bacteriophage M13); assay: as above
[8] = target: Ala(1-3)-IGF-I, triple alanine mutant of the first three N-terminal amino acids, displayed on phage (human; bacteriophage M13); assay: as above
[9] = target: IGF-I R37A (G1S-A70V background) displayed on phage (human; bacteriophage M13); assay: as above
[10] = target: IGF-I Y24A (G1S-A70V background) displayed on phage (human; bacteriophage M13); assay: as above
[11] = target: IGF-I F25A (G1S-A70V background) displayed on phage (human; bacteriophage M13); assay: as above
[12] = target: IGF-I F23A (G1S-A70V background) displayed on phage (human; bacteriophage M13); assay: as above
[13] = target: IGF-I G22A (G1S-A70V background) displayed on phage (human; bacteriophage M13); assay: as above
[14] = target: IGF-I D20A (G1S-A70V background) displayed on phage (human; bacteriophage M13); assay: as above
[15] = target: IGF-I N26A (G1S-A70V background) displayed on phage (human; bacteriophage M13); assay: as above
[16] = target: IGF-I S34A (G1S-A70V background) displayed on phage (human; bacteriophage M13); assay: as above
[17] = target: IGF-I V44A (G1S-A70V background) displayed on phage (human; bacteriophage M13); assay: as above
[18] = target: IGF-I T41A (G1S-A70V background) displayed on phage (human; bacteriophage M13); assay: as above
[19] = target: IGF-I G19A (G1S-A70V background) displayed on phage (human; bacteriophage M13); assay: as above
[20] = target: T2, IGF-I F49A (G1S-A70V background) displayed on phage (human; bacteriophage M13); assay: competitive phage ELISA, soluble IGFBP-1 vs coated IGFBP-1; conditions: remark: other sources report otherwise
T2 chain: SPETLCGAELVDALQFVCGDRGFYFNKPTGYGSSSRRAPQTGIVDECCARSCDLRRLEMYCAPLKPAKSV

recombinant human IGFBP-3 (human), sequence (P17936 28-291 limits assumed): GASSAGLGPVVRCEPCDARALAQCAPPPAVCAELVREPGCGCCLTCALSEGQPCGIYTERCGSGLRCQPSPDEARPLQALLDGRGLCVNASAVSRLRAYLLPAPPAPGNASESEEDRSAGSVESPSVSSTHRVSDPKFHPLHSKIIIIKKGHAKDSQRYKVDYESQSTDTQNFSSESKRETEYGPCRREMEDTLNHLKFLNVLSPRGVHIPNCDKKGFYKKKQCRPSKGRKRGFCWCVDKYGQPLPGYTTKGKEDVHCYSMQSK

Molecule: T4A IGF-I (soluble, purified) (from UniProt P05019 49-118) (ligand)
KD(mutant)/KD(IGF-I) [1]: 2.1 fold
KD(mutant)/KD(IGF-I) [2]: 6.9 fold

Molecule: V11A IGF-I (soluble, purified) (from UniProt P05019 49-118) (ligand)
KD(mutant)/KD(IGF-I) [1]: 4.5 fold
KD(mutant)/KD(IGF-I) [2]: 5.1 fold

Molecule: R36A IGF-I (soluble, purified) (from UniProt P05019 49-118) (ligand)
KD(mutant)/KD(IGF-I) [1]: 0.8 fold
KD(mutant)/KD(IGF-I) [2]: 1.1 fold

Molecule: G1S/A70V IGF-I (soluble, purified) (from UniProt P05019 50-117) (ligand)
KD(mutant)/KD(IGF-I) [1]: 1.5 fold
KD(mutant)/KD(IGF-I) [2]: 1.1 fold

B1: human IGFBP-1, P08833 26-259 (protein, UniProt P08833 26-259, looked up)
chain: T1 sequence (looked up)
relative IC50 (IC50mut/IC50 G1S-A70V) [20]: > 100 fold

Continued, values first:

KD(mutant)/KD(IGF-I) [1]: 6.9 fold
KD(mutant)/KD(IGF-I) [2]: 25 fold
Molecule: F16A IGF-I (soluble, purified) (from UniProt P05019 49-118) (ligand)

KD(mutant)/KD(IGF-I) [1]: 5.1 fold
KD(mutant)/KD(IGF-I) [2]: 25 fold
Molecule: F25A IGF-I (soluble, purified) (from UniProt P05019 49-118) (ligand)

IC50 [3]: 1.17 nM
relative IC50 (IC50mut/IC50 G1S-A70V) [3]: 1.6 fold
IC50 [4]: 0.53 nM
relative IC50 (IC50mut/IC50 G1S-A70V) [4]: 0.7 fold
IC50 [5]: 0.58 nM
relative IC50 (IC50mut/IC50 G1S-A70V) [5]: 0.8 fold
IC50 [6]: 0.56 nM
relative IC50 (IC50mut/IC50 G1S-A70V) [6]: 0.7 fold
IC50 [7]: 0.47 nM
relative IC50 (IC50mut/IC50 G1S-A70V) [7]: 0.6 fold
IC50 [8]: 1.12 nM
relative IC50 (IC50mut/IC50 G1S-A70V) [8]: 1.5 fold
IC50 [9]: 0.75 nM
relative IC50 (IC50mut/IC50 G1S-A70V) [9]: 1 fold
IC50 [10]: 2.53 nM
relative IC50 (IC50mut/IC50 G1S-A70V) [10]: 3.4 fold
IC50 [11]: 3.69 nM
relative IC50 (IC50mut/IC50 G1S-A70V) [11]: 4.9 fold
IC50 [12]: 2.18 nM
relative IC50 (IC50mut/IC50 G1S-A70V) [12]: 2.9 fold
IC50 [13]: 2.07 nM
relative IC50 (IC50mut/IC50 G1S-A70V) [13]: 2.8 fold
IC50 [14]: 1.11 nM
relative IC50 (IC50mut/IC50 G1S-A70V) [14]: 1.5 fold
IC50 [15]: 0.9 nM
relative IC50 (IC50mut/IC50 G1S-A70V) [15]: 1.2 fold
IC50 [16]: 1.65 nM
relative IC50 (IC50mut/IC50 G1S-A70V) [16]: 2.2 fold
IC50 [17]: 1.03 nM
relative IC50 (IC50mut/IC50 G1S-A70V) [17]: 1.4 fold
IC50 [18]: 0.43 nM
relative IC50 (IC50mut/IC50 G1S-A70V) [18]: 0.6 fold
IC50 [19]: 0.9 nM
relative IC50 (IC50mut/IC50 G1S-A70V) [19]: 1.2 fold
Molecule: recombinant human IGFBP-3 (from UniProt P17936 28-291)

KD(mutant)/KD(IGF-I) [1]: 1.5 fold
KD(mutant)/KD(IGF-I) [2]: 1 fold
Molecule: P39A IGF-I (soluble, purified) (from UniProt P05019 49-118) (ligand)
